T1: Abp1 SH3 (ABP1_YEAST), P15891
T1 chain: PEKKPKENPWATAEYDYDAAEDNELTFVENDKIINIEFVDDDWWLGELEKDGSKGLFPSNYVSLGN


Target: T1, Abp1 SH3 (ABP1_YEAST), P15891
Experiment: SPOT array

Binder	normalised SPOT signal, Boehringer light units (BLU); mean over the file's lines of this peptide
FNGNSRLMMIPKKP [YDL073W 594-607]	4150
FLDVLKIKPLPYKP [YER093C 581-594]	316
FASKVNYPVLIRP [YJR109C 723-735]	156
FYYWLGVPSFQRP [YHR171W 136-148]	97
FQLPTRLPAFERP [YDL150W 307-319]	353
FNVPSQKPLNSKP [YHR103W 279-291]	955
FTNLQAKPLVGKP [YAR002W 429-441]	4290
FTYAYVSPTKLKP [YGL140C 277-289]	170
FSEKPEETPNPLKP [YKL077W 64-77]	170
EVVKILRESNPPRP [YJR010W 379-392]	39.2
FLSIHFPTDYPFKP [YBR082C 52-65]	95.8
FSGSLKLPNSPRP [YGL135W 49-61]	478
EYLDQKNPQKEKP [YDR293C 662-674]	52.7
FSVLIYESLDPDRP [YIR032C 164-177]	143
FEMVTEVPIPRRP [YGR156W 132-144]	526
FWKSLYPELTPYKP [YKR051W 189-202]	97.4
FINVSHSPLVPKP [YHR034C 60-72]	76.6

Binder	normalised SPOT signal, Boehringer light units (BLU); mean over the file's lines of this peptide
FGLEQISPAQKKP [YDL217C 6-18]	63
FVYPFIRRYTPLKP [YKR093W 407-420]	125
FREPERKTSVPVRP [YIL156W 221-234]	773
FSGVTNQPSPIRP [YER129W 662-674]	67.2
FASDSLLDLSPIKP [YCL018W 111-124]	73.8
FDKKNETPRKRKP [YBL046W 314-326]	173
FKRAGLIPIRLRP [YDR072C 45-57]	411
FNTPVDSPSVSRP [YER040W 639-651]	94.4
EYKYSRPPYNFKP [YBR043C 498-510]	155
FKVMVANPRKSKP [YKL189W 299-311]	2270
FAEKVGYPVLVRP [YJL130C 1124-1136]	85.3
FNVQDVRPDLFRP [YDR080W 297-309]	100
FKRSIGASHAPLKP [YER161C 100-113]	145
FDSQFSAPFNGRP [YBL014C 791-803]	168
FRGDYGNNISPERP [YAL017W 277-290]	106
FDIVFPAPKGKRP [YBR034C 258-270]	284
FQVVLDTPQGLKP [YFR037C 187-199]	103

The next lines start with the values.

normalised SPOT signal, Boehringer light units (BLU); mean over the file's lines of this peptide	Binder
230	FIQQMMDPSKAKP [YPL082C 1249-1261]
28.8	FQLIYFFPDLIKP [YOL107W 265-277]
10.5	FIDPSLRPIIVKP [YPR056W 253-265]
123	FLNDVEEEESPVKP [YLL021W 576-589]
2180	FSLMFNTSRLPGKP [YML042W 214-227]
92	FSHTGLTSFTPERP [YOL138C 597-610]
831	FNKTRFVPGSNKP [YPL272C 132-144]
101	FDGKPTATPSPFRP [YMR153W 197-210]
48.4	FIDDLKQPKYVRP [YPL070W 96-108]
61.2	EYGHHARPDSKRP [YMR268C 2-14]
196	FVFFKSLPDLPKP [YML104C 41-53]
2280	FEKGPRMPSRGRP [YPR171W 143-155]
238	FPDWSMGPNSAKP [YPL089C 527-539]
115	FSYPISSPINFKP [YPR164W 96-108]
101	FFPNVNSPSVNKP [YNR045W 370-382]
186	FFQLPPVSKDPNRP [YML061C 379-392]
63	FLHGNTNAPTPLRP [YPR099C 84-97]
20	FYILDKFPLEIRP [YLL018C 442-454]
83.2	FDYIVTREFRPTKP [YOR131C 125-138]
217	FTDNSLLPSLIKP [YOR317W 178-190]
147	FSDKNTIPPNEKP [YPR022C 372-384]
55.3	FEEPEDFLPPPPKP [YLR285W 14-27]
35	FPPNEAPMLSPQRP [YLR006C 159-172]
246	FQFLNNTPKMLKP [YLR190W 87-99]
158	FSAAEIWPTKGKP [YMR228W 229-241]
